Reference: the supplement of paper PMC11246515
± gives the standard deviation of the averaged measurements.

Test: total protein half-life in vivo (active degradation + dilution); higher = more stable protein
[1] = E. coli NCM3722 delta-clpP delta-lon delta-hslV, growth: N-lim chemostat, doubling time 6 h
[2] = E. coli NCM3722 delta-clpP, growth: N-lim chemostat, doubling time 6 h
[3] = E. coli NCM3722 delta-hslV, growth: N-lim chemostat, doubling time 6 h
[4] = E. coli NCM3722 delta-lon, growth: N-lim chemostat, doubling time 6 h
[5] = E. coli NCM3722 delta-smpB, growth: N-lim chemostat, doubling time 6 h
[6] = wild type E. coli NCM3722, growth: C-lim chemostat, doubling time 3 h
[7] = wild type E. coli NCM3722, growth: C-lim chemostat, doubling time 6 h
[8] = wild type E. coli NCM3722, growth: C-lim chemostat, doubling time 12 h
[9] = wild type E. coli NCM3722, growth: N-lim chemostat, doubling time 6 h
[10] = wild type E. coli NCM3722, growth: N-lim chemostat, doubling time 12 h
[11] = wild type E. coli NCM3722, growth: P-lim chemostat, doubling time 6 h
[12] = wild type E. coli NCM3722, growth: P-lim chemostat, doubling time 12 h

MKALTARQQEVFDLIRDHISQTGMPPTRAEIAQRLGFRSPNAAEEHLKALARKGVIEIVSGASRGIRLLQEEEEGLPLVGRVAAGEPLLAQQHIEGHYQVDPSLFKPNADFLLRVSGMSMKDIGIMDGDLLAVHKTQDVRNGQVVVARIDDEVTVKRLKKQGNKVELLPENSEFKPIVVDLRQQSFTIEGLAVGVIRNGDWL [P0A7C2]
total protein half-life in vivo [1]: 3.01 ± 0.14 h
total protein half-life in vivo [2]: 2.31 ± 0.15 h
total protein half-life in vivo [3]: 3.18 ± 0.11 h
total protein half-life in vivo [4]: 3.9 ± 0.1 h
total protein half-life in vivo [5]: 3.03 ± 0.12 h
total protein half-life in vivo [6]: 1.91 ± 0.16 h
total protein half-life in vivo [7]: 3.21 ± 0.11 h
total protein half-life in vivo [8]: 4.65 ± 0.17 h
total protein half-life in vivo [9]: 3.25 ± 0.28 h
total protein half-life in vivo [10]: 4.784 ± 0.043 h
total protein half-life in vivo [11]: 2.68 ± 0.22 h
total protein half-life in vivo [12]: 4.77 ± 0.42 h

MKAPGLPADQQFFADLFSGLVLNPQLLGRVWFASQPASLPVGSLCIDFPRLDIVLRGEYGNLLEAKQQRLVEGEMLFIPARAANLPVNNKPVMLLSLVFAPTWLGLSFYDSRTTSLLHPARQIQLPSLQRGEGEAMLTALTHLSRSPLEQNIIQPLVLSLLHLCRSVVNMPPGNSQPRGDFLYHSICNWVQDNYAQPLTRESVAQFFNITPNHLSKLFAQHGTMRFIEYVRWVRMAKARMILQKYHLSIHEVAQRCGFPDSDYFCRVFRRQFGLTPGEYSARFQG
total protein half-life in vivo [1]: 5.03 h
total protein half-life in vivo [7]: 1.83 h

MKATKLVLGAVILGSTLLAGCSSNAKIDQLSSDVQTLNAKVDQLSNDVNAMRSDVQAAKDDAARANQRLDNMATKYRK
total protein half-life in vivo [1]: 5.79 ± 1.4 h
total protein half-life in vivo [2]: 6.38 ± 0.67 h
total protein half-life in vivo [3]: 5.95 ± 0.4 h
total protein half-life in vivo [5]: 5.03 ± 0.051 h
total protein half-life in vivo [6]: 3.11 ± 0.35 h
total protein half-life in vivo [7]: 4.92 ± 0.76 h
total protein half-life in vivo [8]: 11.2 ± 3.2 h
total protein half-life in vivo [9]: 5.81 ± 0.7 h
total protein half-life in vivo [10]: 11.7 ± 3.1 h
total protein half-life in vivo [11]: 5.66 ± 0.3 h
total protein half-life in vivo [12]: 12.1 ± 0.34 h

MKDERRPICEVVAESIERLIIDGVLKVGQPLPSERRLCEKLGFSRSALREGLTVLRGRGIIETAQGRDSRVARLNRVQDTSPLIHLFSTQPRTLYDLLDVRALLEGESARLAATLGTQADFVVITRCYEKMLAASENNKEISLIEHAQLDHAFHLAICQASHNQVLVFTLQSLTDLMFNSVFASVNNLYHRPQQKKQIDRQHARIYNAVLQRLPHVAQRAARDHVRTVKKNLHDIELEGHHLIRSAVPLEMNLS [P0ACL5]
total protein half-life in vivo [1]: 4.767 ± 0.025 h
total protein half-life in vivo [2]: 1.35 h
total protein half-life in vivo [4]: 1.21 h
total protein half-life in vivo [5]: 1.37 ± 0.029 h
total protein half-life in vivo [6]: 1.3 ± 0.1 h
total protein half-life in vivo [7]: 2.15 ± 0.25 h
total protein half-life in vivo [8]: 2.35 ± 0.16 h
total protein half-life in vivo [9]: 1.21 ± 0.14 h
total protein half-life in vivo [10]: 1.68 ± 0.18 h
total protein half-life in vivo [11]: 1.56 ± 0.22 h
total protein half-life in vivo [12]: 2.65 ± 0.72 h

MKDVVIVGALRTPIGCFRGALAGHSAVELGSLVVKALIERTGVPAYAVDEVILGQVLTAGAGQNPARQSAIKGGLPNSVSAITINDVCGSGLKALHLATQAIQCGEADIVIAGGQENMSRAPHVLTDSRTGAQLGNSQLVDSLVHDGLWDAFNDYHIGVTAENLAREYGISRQLQDAYALSSQQKARAAIDAGRFKDEIVPVMTQSNGQTLVVDTDEQPRTDASAEGLARLNPSFDSLGSVTAGNASSINDGAAAVMMMSEAKARALNLPVLARIRAFASVGVDPALMGIAPVYATRRCLERVGWQLAEVDLIEANEAFAAQALSVGKMLEWDERRVNVNGGAIALGHPIGASGCRILVSLVHEMVKRNARKGLATLCIGGGQGVALTIERDE
total protein half-life in vivo [1]: 5.29 ± 0.14 h
total protein half-life in vivo [6]: 1.35 ± 0.2 h
total protein half-life in vivo [7]: 2.66 ± 0.38 h
total protein half-life in vivo [8]: 3.57 ± 0.4 h
total protein half-life in vivo [11]: 0.858 h
total protein half-life in vivo [12]: 2 ± 0.37 h

MKELVVVAIGGNSIIKDNASQSIEHQAEAVKAVADTVLEMLASDYDIVLTHGNGPQVGLDLRRAEIAHKREGLPLTPLANCVADTQGGIGYLIQQALNNRLARHGEKKAVTVVTQVEVDKNDPGFAHPTKPIGAFFSDSQRDELQKANPDWCFVEDAGRGYRRVVASPEPKRIVEAPAIKALIQQGFVVIGAGGGGIPVVRTDAGDYQSVDAVIDKDLSTALLAREIHADILVITTGVEKVCIHFGKPQQQALDRVDIATMTRYMQEGHFPPGSMLPKIIASLTFLEQGGKEVIITTPECLPAALRGETGTHIIKT
total protein half-life in vivo [6]: 2.78 ± 1.3 h
total protein half-life in vivo [7]: 5.03 h

MKENNLNRVIGWSGLLLTSLLSTSALADNIGTSAEELGLSDYRHFVIYPRLDKALKAQKNNDEATAIREFEYIHQQVPDNIPLTLYLAEAYRHFGHDDRARLLLEDQLKRHPGDARLERSLAAIPVEVKSVTTVEELLAQQKACDAAPTLRCRSEVGQNALRLAQLPVARAQLNDATFAASPEGKTLRTDLLQRAIYLKQWSQADTLYNEARQQNTLSAAERRQWFDVLLAGQLDDRILALQSQGIFTDPQSYITYATALAYRGEKARLQHYLIENKPLFTTDAQEKSWLYLLSKYSANPVQALANYTVQFADNRQYVVGATLPVLLKEGQYDAAQKLLATLPANEMLEERYAVSVATRNKAEALRLARLLYQQEPANLTRLDQLTWQLMQNEQSREAADLLLQRYPFQGDARVSQTLMARLASLLESHPYLATPAKVAILSKPLPLAEQRQWQSQLPGIADNCPAIVRLLGDMSPSYDAAAWNRLAKCYRDTLPGVALYAWLQAEQRQPSAWQHRAVAYQAYQVEDYATALAAWQKISLHDMSNEDLLAAANTAQAAGNGAARDRWLQQAEKRGLGSNALYWWLHAQRYIPGQPELALNDLTRSINIAPSANAYVARATIYRQRHNVPAAVSDLRAALELEPNNSNTQAALGYALWDSGDIAQSREMLEPAHKGLPDDPALIRQLAYVNQRLDDMPATQHYARLVIDDIDNQALITPLTPEQNQQRFNFRRLHEEVGRRWTFSFDSSIGLRSGAMSTANNNVGGAAPGKSYRSYGQLEAEYRIGRNMLLEGDLLSVYSRVFADTGENGVMMPVKNPMSGTGLRWKPLRDQIFFIAVEQQLPLNGQNGASDTMLRASASFFNGGKYSDEWHPNGSGWFAQNLYLDAAQYIRQDIQAWTADYRVSWHQKVANGQTIEPYAHVQDNGYRDKGTQGAQLGGVGVRWNIWTGETHYDAWPHKVSLGVEYQHTFKAINQRNGERNNAFLTIGVHW
total protein half-life in vivo [2]: 6.61 ± 0.31 h
total protein half-life in vivo [4]: 6.08 ± 0.15 h
total protein half-life in vivo [5]: 5.92 ± 0.22 h
total protein half-life in vivo [7]: 6.45 ± 0.45 h
total protein half-life in vivo [8]: 11.31 ± 0.082 h
total protein half-life in vivo [9]: 6.193 ± 0.047 h
total protein half-life in vivo [10]: 12.7 ± 1 h
total protein half-life in vivo [11]: 5.88 ± 0.08 h

MKEVEKNEIKRLSDRLDAIRHQQADLSLVEAADKYAELEKEKATLEAEIARLREVHSQKLSKEAQKLMKMPFQRAITKKEQADMGKLKKSVRGLVVVHPMTALGREMGLQEMTGFSKTAF [P0ADK8]
total protein half-life in vivo [1]: 6.16 ± 1.2 h
total protein half-life in vivo [2]: 4.37 ± 0.35 h
total protein half-life in vivo [3]: 4.65 ± 0.78 h
total protein half-life in vivo [4]: 5.34 ± 1.4 h
total protein half-life in vivo [5]: 4.26 ± 0.64 h
total protein half-life in vivo [7]: > 8 h
total protein half-life in vivo [8]: 9.91 ± 3.4 h
total protein half-life in vivo [9]: 3.91 ± 0.96 h
total protein half-life in vivo [10]: 6.76 ± 1.6 h
total protein half-life in vivo [11]: 3.5 ± 0.53 h
total protein half-life in vivo [12]: 6.29 ± 0.48 h
